One block for each binder: values may come before it. No end group written: not given here. C4^P polymer block = not defined here; O‑glycan = not defined here
Key:
[1] = target: T1, C4^P-D^WW protein polymer (C4^P polymer with a C-terminal WW domain WWP1-1) (human); assay: ITC; MicroCal VP-ITC, 25 °C, 10 mM sodium phosphate pH 7; 200 uM C4^P-D^WW (1.4 mL) in the cell, 2.9 mM ligand in the syringe, 63 injections of 4 uL; triplicate, Kd values averaged; conditions: both partners purified
[2] = target: T1, C4^P-D^WW protein polymer (C4^P polymer …); assay: other fluorescence titration; steady-state tryptophan fluorescence (excitation 295 nm, emission 340 nm); 500 uL of 10 uM C4^P-D^WW in the cuvette, 500 uM ligand added stepwise up to ~24 uM; 10 mM sodium phosphate pH 7, RT; triplicate, fit on averaged data; conditions: both partners purified

T1 sequence (chain, as listed by the source): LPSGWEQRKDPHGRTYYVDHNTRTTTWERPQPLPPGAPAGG

- Kd [1]: 9.2 µM
- stoichiometry N [1]: ~0.9
- Kd [2]: 2.7 µM
Binder: {C4^P polymer block}-EYPPYPPPPYPAGPAGG (other, reading uncertain; also: nonglycosylated) [C4^P-D^PPxY* protein polymer (Ser12 to Ala mutant of the PPxY module, nonglycosylated)]

- Kd [1]: 9.3 µM
- stoichiometry N [1]: ~0.9
- Kd [2]: 2.5 µM
B1: C4^P-D^PPxY protein polymer (C4^P polymer with a C-terminal PPxY proline-rich ligand), O-glycosylated (other)
chain: {C4^P polymer block}-EYPPYPPPPYPS(O‑glycan)GPAGG
modifications: reading uncertain; also: O-glycans heterogeneous, tentatively Man3 to Man7, mostly phosphorylated in diester linkage, minor fraction nonglycosylated
